The record followed here is IntAct's records for PubMed 18612383.

B1: Cellular tumor antigen p53 (Mus musculus), P02340 (parent)
chain: MTAMEESQSDISLELPLSQETFSGLWKLLPPEDILPSPHCMDDLLLPQDVEEFFEGPSEALRVSGAPAAQDPVTETPGPVAPAPATPWPLSSFVPSQKTYQGNYGFHLGFLQSGTAKSVMCTYSPPLNKLFCQLAKTCPVQLWVSATPPAGSRVRAMAIYKKSQHMTEVVRRCPHHERCSDGDGLAPPQHLIRVEGNLYPEYLEDRQTFRHSVVVPYEPPEAGSEYTTIHYKYMCNSSCMGGMNRRPILTIITLEDSSGNLLGRDSFEVRVCACPGRDRRTEEENFRKKEVLCPELPPGSAKRALPTCTSASPPQKKKPLDGEYFTLKIRGRKRFEMFRELNEALELKDAHATEESGDSRAHSSYLKTKKGQSTSRHKKTMVKKVGPDSD

In the assay the parent is B1. The note with it: with ep300_human EP300, Q09472.
ep300_human EP300, Q09472, sequence (Q09472 whole entry): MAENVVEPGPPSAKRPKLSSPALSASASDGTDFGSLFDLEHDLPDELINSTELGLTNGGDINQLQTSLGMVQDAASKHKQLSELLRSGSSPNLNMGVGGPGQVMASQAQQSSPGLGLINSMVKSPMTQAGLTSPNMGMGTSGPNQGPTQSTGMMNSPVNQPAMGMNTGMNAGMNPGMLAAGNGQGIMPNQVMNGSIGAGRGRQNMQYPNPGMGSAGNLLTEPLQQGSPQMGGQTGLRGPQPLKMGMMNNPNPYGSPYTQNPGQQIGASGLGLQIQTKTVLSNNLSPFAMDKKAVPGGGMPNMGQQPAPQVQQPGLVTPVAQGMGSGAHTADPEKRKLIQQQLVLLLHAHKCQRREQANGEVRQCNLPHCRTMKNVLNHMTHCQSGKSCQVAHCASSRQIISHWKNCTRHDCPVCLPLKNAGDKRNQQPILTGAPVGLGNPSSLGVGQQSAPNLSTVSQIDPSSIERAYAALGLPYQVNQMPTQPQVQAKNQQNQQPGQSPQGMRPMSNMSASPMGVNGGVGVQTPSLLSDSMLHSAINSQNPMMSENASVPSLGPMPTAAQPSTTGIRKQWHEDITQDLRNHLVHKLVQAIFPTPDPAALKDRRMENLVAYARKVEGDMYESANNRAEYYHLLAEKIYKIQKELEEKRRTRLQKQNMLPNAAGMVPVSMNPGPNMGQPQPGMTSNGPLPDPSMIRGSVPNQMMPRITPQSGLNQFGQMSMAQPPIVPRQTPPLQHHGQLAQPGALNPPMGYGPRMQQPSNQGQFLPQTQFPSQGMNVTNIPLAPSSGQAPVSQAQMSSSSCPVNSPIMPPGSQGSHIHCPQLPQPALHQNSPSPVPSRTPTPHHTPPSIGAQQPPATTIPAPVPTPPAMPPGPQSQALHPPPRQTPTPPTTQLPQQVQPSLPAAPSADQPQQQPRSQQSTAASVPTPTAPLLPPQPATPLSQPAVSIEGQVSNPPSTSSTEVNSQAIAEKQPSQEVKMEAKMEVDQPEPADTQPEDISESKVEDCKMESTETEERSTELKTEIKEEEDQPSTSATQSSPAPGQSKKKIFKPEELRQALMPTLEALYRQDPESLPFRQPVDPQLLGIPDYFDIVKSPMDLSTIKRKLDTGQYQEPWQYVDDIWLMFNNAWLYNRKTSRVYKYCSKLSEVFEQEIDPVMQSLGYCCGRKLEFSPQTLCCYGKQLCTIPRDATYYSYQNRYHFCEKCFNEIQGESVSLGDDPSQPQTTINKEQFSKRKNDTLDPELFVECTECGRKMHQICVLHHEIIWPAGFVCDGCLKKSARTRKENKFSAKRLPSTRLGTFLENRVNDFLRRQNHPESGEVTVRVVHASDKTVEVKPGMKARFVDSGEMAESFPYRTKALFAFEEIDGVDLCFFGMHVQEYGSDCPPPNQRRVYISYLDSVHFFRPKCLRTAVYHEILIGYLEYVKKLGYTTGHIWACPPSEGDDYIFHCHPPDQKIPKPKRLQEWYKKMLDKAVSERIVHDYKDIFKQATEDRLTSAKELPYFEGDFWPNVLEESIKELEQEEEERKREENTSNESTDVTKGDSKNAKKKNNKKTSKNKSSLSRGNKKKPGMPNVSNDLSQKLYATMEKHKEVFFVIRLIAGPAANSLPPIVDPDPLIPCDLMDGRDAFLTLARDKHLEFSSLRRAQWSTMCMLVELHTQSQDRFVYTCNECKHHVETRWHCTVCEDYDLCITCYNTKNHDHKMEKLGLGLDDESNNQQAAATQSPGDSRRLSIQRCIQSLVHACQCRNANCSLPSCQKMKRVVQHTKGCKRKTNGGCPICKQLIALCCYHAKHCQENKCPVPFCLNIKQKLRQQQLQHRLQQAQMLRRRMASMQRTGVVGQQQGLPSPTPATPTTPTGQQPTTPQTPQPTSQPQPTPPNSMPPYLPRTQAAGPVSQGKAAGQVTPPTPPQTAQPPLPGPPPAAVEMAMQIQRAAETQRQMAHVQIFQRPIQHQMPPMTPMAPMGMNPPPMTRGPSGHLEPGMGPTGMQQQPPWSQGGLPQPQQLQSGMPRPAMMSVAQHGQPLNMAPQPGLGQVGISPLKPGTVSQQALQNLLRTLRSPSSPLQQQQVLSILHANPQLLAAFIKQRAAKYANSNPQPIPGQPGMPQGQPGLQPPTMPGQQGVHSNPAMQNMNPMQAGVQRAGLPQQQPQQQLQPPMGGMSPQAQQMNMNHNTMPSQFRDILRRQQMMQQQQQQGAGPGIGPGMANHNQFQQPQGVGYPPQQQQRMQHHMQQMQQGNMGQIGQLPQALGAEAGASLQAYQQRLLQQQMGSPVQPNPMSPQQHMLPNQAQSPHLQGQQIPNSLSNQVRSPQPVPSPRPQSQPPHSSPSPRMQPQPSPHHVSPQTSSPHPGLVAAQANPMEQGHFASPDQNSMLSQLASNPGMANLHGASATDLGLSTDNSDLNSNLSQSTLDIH
For L25Q;W26S, the “effect of a mutation on the interaction” value was “decreasing interaction”.
